Source: patent US20230192839A1 (published 2023)
Positions count from the first letter of the chain named.

Key:
human CD33 antigen [1] = biological target: T1, human CD33 antigen (human, UniProt P20138 18-259, limits assumed); assay: SPR (Biacore T200), 37 C; KD at 10 uM MTX / KD at 0 uM MTX
T1 construct: whole entry named; also called Siglec-3
Experimental: (§1) All binding kinetics analysis was performed on label-free Biacore surface plasmon biosensors (Biacore T200™ from GE Life Sciences) at 37° C. in 10 mM Hepes pH 7.4, 150 mM NaCl, 0.05% Tween-20 (HBST+), with or without 10 µM MTX. The Biacore data were processed in Biacore T200 Evaluation Software, and the data were double-referenced (Myszka, 1999, J Mol Recognit 12(5):279-284) and fit globally to a simple Langmuir with mass transport model to determine the equilibrium dissociation constant, KD, from the ratio of the kinetic rate constants (KD = koff/kₒₙ). In some cases the binding of antigen was very low (or not detectable) in the presence of 10 µM MTX and as a result kinetic rate constants could not be accurately determined. In these cases, a KD (or KD limit) was estimated based on the binding response at the highest analyte concentration tested or based on the typical limit of detection for a Biacore T200.

human CD33 antigen [2] = biological target: T1, human CD33 antigen; assay: SPR (Biacore T200), 37 C, scFv-Fc, 0 uM MTX
Experimental: as §1

human CD33 antigen [3] = biological target: T1, human CD33 antigen; assay: SPR (Biacore T200), 37 C, scFv-Fc, 10 uM MTX
Experimental: as §1
“*”: For interactions where kₒₙ and koff are reported, the KD was calculated using koff/kₒₙ.

T1 sequence (P20138 18-259 limits assumed): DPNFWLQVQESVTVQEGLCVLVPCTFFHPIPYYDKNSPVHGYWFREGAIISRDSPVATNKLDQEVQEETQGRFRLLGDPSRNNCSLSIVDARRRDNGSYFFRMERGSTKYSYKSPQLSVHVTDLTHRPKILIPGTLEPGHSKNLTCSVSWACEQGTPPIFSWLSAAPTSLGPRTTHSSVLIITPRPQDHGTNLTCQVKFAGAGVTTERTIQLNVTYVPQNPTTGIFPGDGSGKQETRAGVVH

B1: P02_D08 scFv-Fc fusion (scFv, V domains shown)
VH: QVQLVESGGGLVQAGGSLRLSCAASRRSSRSWAMHWVRQAPGKGLEWVAVISYDGRLKYYADSVKGRFTISRDNAEYLVYLQMNSLRAEDTAVYYCAAERGDGLDGNVGLDIWGQGTLVTVSS
VL: DIQMTQSPSSLSASVGDRVTITCRASQSISKYLNWYQQKPGKAPKLLIYGASTLQSGVPSRFSGSGSGTDFTLTISSLQPEDFATYYCQQSYSSGTFGQGTKVEIK
notes: Tested as scFv-Fc fusion
Human CD33 antigen [1]
  Ratio: KD with MTX / KD without MTX: 7.1
Human CD33 antigen [2]
  Kd: 100 nM
  koff: 0.0061 s⁻¹
  kon: 61000 M⁻¹ s⁻¹
Human CD33 antigen [3]
  Kd: 705 nM
  koff: 0.062 s⁻¹
  kon: 88000 M⁻¹ s⁻¹

B2: P01_F05 scFv-Fc fusion (scFv, V domains shown)
VH: QVQLVESGGGLVQAGGSLRLSCAASRRSSRSWAMHWVRQAPGKGLEWVAVISYDGRLKYYADSVKGRFTISRDNAEYLVYLQMNSLRAEDTAVYYCAAGPDRWAGYDAFDVWGQGTLVTVSS
VL: DIQMTQSPSSLSASVGDRVTITCRASQTINTHLNWYQQKPGKAPKLLIYGASNLQGGVPSRFSGSGSGTDFTLTISSLQPEDFATYYCQQSYSTPLTFGQGTKVEIK
notes: Tested as scFv-Fc fusion
Human CD33 antigen [1]
  Ratio: KD with MTX / KD without MTX: > 92.5
Human CD33 antigen [2]
  Kd: 143 nM
  koff: 0.01 s⁻¹
  kon: 71000 M⁻¹ s⁻¹

B3: P02_A10 scFv-Fc fusion (scFv, V domains shown)
VH: QVQLVESGGGLVQAGGSLRLSCAASRRSSRSWAMHWVRQAPGKGLEWVAVISYDGRLKYYADSVKGRFTISRDNAEYLVYLQMNSLRAEDTAVYYCAAESEWDTGGFDVWGQGTLVTVSS
VL: B1 VL with S30G, K31S, G50S, A51S, T53N, S93T
notes: Tested as scFv-Fc fusion
Human CD33 antigen [1]
  Ratio: KD with MTX / KD without MTX: > 17.3
Human CD33 antigen [2]
  Kd: 523 nM
  koff: 0.044 s⁻¹
  kon: 84000 M⁻¹ s⁻¹

B4: P03_G12 scFv-Fc fusion (scFv, V domains shown)
VH: B3 VH with E99D, S100P, E101T, W102E, D103G, T104W, G105S, G106Y, F107L, V109Y
VL: B1 VL with S28G, K31S, T53R, S91G
notes: Tested as scFv-Fc fusion
Human CD33 antigen [1]
  Ratio: KD with MTX / KD without MTX: > 83
Human CD33 antigen [2]
  Kd: 132 nM
  koff: 0.0094 s⁻¹
  kon: 71000 M⁻¹ s⁻¹

B5: P02_B03 scFv-Fc fusion (scFv, V domains shown)
VH: QVQLVESGGGLVQAGGSLRLSCAASRRSSRSWAMHWVRQAPGKGLEWVAVISYDGRLKYYADSVKGRFTISRDNAEYLVYLQMNSLRAEDTAVYYCAADQDVGSVGNYYGNGMDVWGQGTLVTVSS
VL: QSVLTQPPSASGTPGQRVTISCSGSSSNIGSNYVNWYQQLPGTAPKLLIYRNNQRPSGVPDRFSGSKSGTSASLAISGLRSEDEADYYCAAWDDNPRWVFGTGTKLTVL
notes: Tested as scFv-Fc fusion
Human CD33 antigen [1]
  Ratio: KD with MTX / KD without MTX: > 2
Human CD33 antigen [2]
  Kd: 170 nM
  koff: 0.023 s⁻¹
  kon: 140000 M⁻¹ s⁻¹

B6: P02_D09 scFv-Fc fusion (scFv, V domains shown)
VH: QVQLVESGGGLVQAGGSLRLSCAASRRSSRSWAMHWVRQAPGKGLEWVAVISYDGRLKYYADSVKGRFTISRDNAEYLVYLQMNSLRAEDTAVYYCAAEEGDGGFFDYWGQGTLVTVSS
VL: QSVLTQPPSASGTPGQRVTISCSGSSSNIGSNYVNWYQQLPGTAPKLLIYRNNERPSGVPDRFSGSKSGTSASLAISGLRSEDEADYYCAAWDGSLSGRGVFGTGTKLTVL
notes: Tested as scFv-Fc fusion
Human CD33 antigen [1]
  Ratio: KD with MTX / KD without MTX: > 20.4
Human CD33 antigen [2]
  Kd: 456 nM
  koff: 0.018 s⁻¹
  kon: 40000 M⁻¹ s⁻¹

B7: P02_E08 scFv-Fc fusion (scFv, V domains shown)
VH: B3 VH with E99S, S100D, E101Y, W102D, D103G, T104G, G106L, V109L
VL: QSVLTQPPSASGTPGQRVTISCSGSNSNIGDNYVHWYQQLPGTAPKLLIYMNNQRPSGVPDRFSGSKSGTSASLAISGLRSEDEADYYCATWDDSLSGVVFGTGTKLTVL
notes: Tested as scFv-Fc fusion
Human CD33 antigen [1]
  Ratio: KD with MTX / KD without MTX: > 3.4
Human CD33 antigen [2]
  Kd: 211 nM
  koff: 0.01 s⁻¹
  kon: 47000 M⁻¹ s⁻¹

B8: P03_H04 scFv-Fc fusion (scFv, V domains shown)
VH: B1 VH with E99D, R100P, G101H, L104Y, D105G, N107G, V108P, L110F, I112Y
VL: B7 VL with N26S, D31S, H35Y, M51R, N52S, T91A, S95T, G98A
notes: Tested as scFv-Fc fusion
Human CD33 antigen [1]
  Ratio: KD with MTX / KD without MTX: > 43
Human CD33 antigen [2]
  Kd: 366 nM
  koff: 0.026 s⁻¹
  kon: 72000 M⁻¹ s⁻¹
